Target: Arabidopsis thaliana PAXX (AtPAXX), full length, untagged (Arabidopsis thaliana)
Assay: crystal structure

Arabidopsis thaliana PAXX (AtPAXX), full length, untagged (natural protein)
stoichiometry N: 2

— doi:10.1101/2023.05.26.542399
